The results in this text go back to US20250002610A1 (Genmab, published 2025).

As usually defined, the EC50 is the concentration at which the effect is half-maximal. A higher EC50 goes with weaker potency.

Test [1] deals with T1, human DR4 with death domain deletion on ExpiCHO-S cells (human). The test can be described thus: flow cytometry, ExpiCHO-S cells expressing human DR4, n = 2. The procedure:
(§1) Binding of BisG1-FAPα-FERL/DR4-FERR, BisG1-DR4-FEAL/b12-FEAR and IgG1-DR4-FERR to DR4 of various species commonly used for nonclinical toxicology studies was assessed by flow cytometry using ExpiCHO-S cells transiently expressing DR4 from different animal species. In contrast to other species, rodents only express one DR which has highest homology with human DR5. Therefore, ExpiCHO-S cells transiently expressing rat and mouse DR protein were used instead. All DR constructs lack the intracellular DD to avoid apoptosis of transfected cells upon DR(4) activation. IgG1-b12 was used as negative control.
For orientation: Flow cytometry measures light scatter and fluorescence of single cells or particles in a stream.

Test [2] has as its target T2, human FAPα (Fibroblast activation protein alpha), cell surface expressed (human, UniProt Q12884 1-760).
T2 construct: Endogenous on human lung fibroblasts and CAFs
T2 sequence: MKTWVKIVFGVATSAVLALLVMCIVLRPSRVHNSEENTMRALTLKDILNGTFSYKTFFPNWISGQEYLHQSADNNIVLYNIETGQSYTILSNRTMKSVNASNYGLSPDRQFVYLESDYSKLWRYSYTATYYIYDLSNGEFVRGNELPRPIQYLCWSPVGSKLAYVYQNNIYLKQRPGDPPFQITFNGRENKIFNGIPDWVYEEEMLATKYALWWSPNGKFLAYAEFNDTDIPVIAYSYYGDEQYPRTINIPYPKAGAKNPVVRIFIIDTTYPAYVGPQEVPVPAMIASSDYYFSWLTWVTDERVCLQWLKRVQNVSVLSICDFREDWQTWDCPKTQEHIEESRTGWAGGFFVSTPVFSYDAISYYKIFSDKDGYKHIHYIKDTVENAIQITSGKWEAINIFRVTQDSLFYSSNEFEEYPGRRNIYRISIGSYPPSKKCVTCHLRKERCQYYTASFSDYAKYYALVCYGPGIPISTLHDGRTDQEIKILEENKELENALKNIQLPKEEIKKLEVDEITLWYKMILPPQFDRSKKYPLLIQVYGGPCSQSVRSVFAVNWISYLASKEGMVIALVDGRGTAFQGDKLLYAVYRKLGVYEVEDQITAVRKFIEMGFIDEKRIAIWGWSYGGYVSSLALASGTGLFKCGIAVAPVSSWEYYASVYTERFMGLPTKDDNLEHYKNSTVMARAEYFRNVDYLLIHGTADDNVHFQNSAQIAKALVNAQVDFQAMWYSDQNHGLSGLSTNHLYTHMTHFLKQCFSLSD
Description: flow cytometry, CAFs, average ± SEM. The procedure:
(§2) Binding of bispecific or monoclonal antibodies carrying the anti-FAPα arm derived from IgG1-FAPα-FERL (BisG1-FAPα-FERL/DR4-FERR, BisG1-FAPα-FERL/b12-FERR, and IgG1-FAPα-FERL) to cell surface expressed human FAPα was analyzed by flow cytometry using human lung fibroblasts and CAFs, which endogenously express FAPα. BisG1-b12-FERL/b12-FERR was used as negative control.
(§3) Human lung fibroblasts and CAFs (50,000 cells/well) were seeded in 96-Well round bottom plates (Greiner Bio-one, Cat #650101). Antibody dilutions were prepared using fluorescence-activated cell sorting (FACS) buffer, consisting of phosphate buffer saline (PBS, Lonza, Cat #BE17-517Q)+1% Bovine Serum Albumin (BSA, Roche, Cat #10735086001)+0.02% Sodium Azide (Bio-World, Cat #41920044-3). Plates were centrifuged, supernatant was removed, cells were resuspended in 50 μL of human Fc Block (BD, Cat #564220, diluted 1:100 in FACS buffer) and 50 μL of viability stain TO-PRO-3 Iodide (Thermo Fisher, Cat #T3605, diluted 1: 25,000 in FACS buffer), and incubated for 15 min at 4° C. Plates were washed three times with FACS buffer. […] Antibody binding to viable cells (TO-PRO-3 negative) was analyzed by flow cytometry on a FACSCelesta™ (BD biosciences) and data were processed using FlowJo_v10.8.1 (FlowJo LLC). Geomean fluorescence intensity, gMFI, was determined and visualized using GraphPad Prism.

In test [3] the target is T1, human DR4 with death domain deletion on …. Description: flow cytometry, ExpiCHO-S cells expressing human DR4, n = 1. As for the experimental part:
as §1

The target of test [4] is T2, human FAPα (Fibroblast activation …). Description: flow cytometry, CAFs, n = 1. The procedure: as §2, §3
Test [5] has the same target. The test can be described thus: flow cytometry, CAFs, n = 2. As for the experimental part:
as §2, §3

Test [6] addresses T3, human DR4 (Death Receptor 4), cell surface expressed on human tumor cell lines (human, UniProt O00220 24-468).
T3 construct: also called TNFRSF10A; TRAIL-R1
T3 sequence: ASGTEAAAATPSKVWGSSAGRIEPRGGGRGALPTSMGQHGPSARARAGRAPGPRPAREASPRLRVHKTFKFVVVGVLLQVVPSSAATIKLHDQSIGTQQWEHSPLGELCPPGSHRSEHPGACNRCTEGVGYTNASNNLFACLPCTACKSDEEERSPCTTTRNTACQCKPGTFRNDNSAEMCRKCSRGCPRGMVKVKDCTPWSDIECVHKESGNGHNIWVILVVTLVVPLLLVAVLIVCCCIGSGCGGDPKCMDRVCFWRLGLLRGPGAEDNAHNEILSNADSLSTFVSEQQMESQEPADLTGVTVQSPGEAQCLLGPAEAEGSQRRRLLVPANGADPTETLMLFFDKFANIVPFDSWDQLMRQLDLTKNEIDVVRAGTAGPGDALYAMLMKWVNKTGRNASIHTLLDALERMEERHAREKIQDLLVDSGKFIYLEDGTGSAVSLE
Description: flow cytometry, HCT-15 cells, average ± SEM.

Test [7] addresses T2, human FAPα (Fibroblast activation …). Description: flow cytometry, CAFs, n = 3. As for the experimental part: as §2, §3

B1: BisG1-FAPα-FERL/DR4-FERR (bispecific antibody, human IgG1, kappa, lambda)
heavy 1: EVQLLESGGGLVQPGGSPRLSCEASGFTFSSYALSWVRQAPGKGLEWVSAISGSGGGRYYADSVKGRFTISRDNSKNTLFLQMNSLRAEDTAVYYCAKEGYSSSGTYWDHWGQGTLVTVSSASTKGPSVFPLAPSSKSTSGGTAALGCLVKDYFPEPVTVSWNSGALTSGVHTFPAVLQSSGLYSLSSVVTVPSSSLGTQTYICNVNHKPSNTKVDKRVEPKSCDKTHTCPPCPAPEFERGPSVFLFPPKPKDTLMISRTPEVTCVVVDVSHEDPEVKFNWYVDGVEVHNAKTKPREEQYNSTYRVVSVLTVLHQDWLNGKEYKCKVSNKALPAPIEKTISKAKGQPREPQVYTLPPSREEMTKNQVSLTCLVKGFYPSDIAVEWESNGQPENNYKTTPPVLDSDGSFLLYSKLTVDKSRWQQGNVFSCSVMHEALHNHYTQKSLSLSPG
light 1: AIQMTQSPSSVSASVGDRVTITCRASQGVSSWLAWYQQKPGRAPKLLIYVASTLQSGVPSRFSGSGSGTDFTLTINSLQPEDFATYYCQQANSFPPTFGQGTRLEMKRTVAAPSVFIFPPSDEQLKSGTASVVCLLNNFYPREAKVQWKVDNALQSGNSQESVTEQDSKDSTYSLSSTLTLSKADYEKHKVYACEVTHQGLSSPVTKSFNRGEC
heavy 2: QVQLQESGPGLVKPSGTLSLTCAVSGGSISSYSWWSWIRQPPGKGLEWIGELYHSGSTNYNPSLKSRVTISVDKSKNQFSLKLRSVTAADTAVYYCVRGVATIDYWGQGTLVTVSSASTKGPSVFPLAPSSKSTSGGTAALGCLVKDYFPEPVTVSWNSGALTSGVHTFPAVLQSSGLYSLSSVVTVPSSSLGTQTYICNVNHKPSNTKVDKRVEPKSCDKTHTCPPCPAPEFERGPSVFLFPPKPKDTLMISRTPEVTCVVVDVSHEDPEVKFNWYVDGVEVHNAKTKPREEQYNSTYRVVSVLTVLHQDWLNGKEYKCKVSNKALPAPIEKTISKAKGQPREPQVYTLPPSREEMTKNQVSLTCLVKGFYPSDIAVEWESNGQPENNYKTTPPVLDSDGSFFLYSRLTVDKSRWQQGNVFSCSVMHEALHNHYTQKSLSLSPG
light 2: QSALTQPPSASGSPGQSVTISCTGTSSDVGGYNFVSWYQQDPGKAPKLLIYEVTKRPSGVPDRFSGSKSGNTASLTVSGLQAEDEADYYCSSYAGSNNVMFGGGTKLTVLGQPKAAPSVTLFPPSSEELQANKATLVCLISDFYPGAVTVAWKADSSPVKAGVETTTPSKQSNNKYAASSYLSLTPEQWKSHRSYSCQVTHEGSTVEKTVAPTECS
notes: Human IgG1 bispecific made by controlled Fab-arm exchange of IgG1-FAPα-FERL and IgG1-DR4-FERR; monovalent for FAPα and for DR4; also called GEN1057
As for B1, the EC50 was 0.38 µg/mL in test [1]; 0.203 µg/mL in test [2]; 1 µg/mL in test [3]; 0.159 µg/mL in test [4]; 0.232 µg/mL in test [5]; 0.65 µg/mL in test [6]. In test [7], this molecule showed a 50% effective concentration (EC50) of 0.211 µg/mL.
